# From patent US20250281600A1 (published 2025)
# B1: REGN10933 IgG (antibody, V domains shown)
# VH: QVQLVESGGGLVKPGGSLRLSCAASGFTFSDYYMSWIRQAPGKGLEWVSYITYSGSTIYYADSVKGRFTISRDNAKSSLYLQMNSLRAEDTAVYYCARDRGTTMVPFDYWGQGTLVTVSS
# VL: DIQMTQSPSSLSASVGDRVTITCQASQDITNYLNWYQQKPGKAPKLLIYAASNLETGVPSRFSGSGSGTDFTFTISGLQPEDIATYYCQQYDNLPLTFGGGTKVEIKR
# Molecular target: SARS-COV-2 Spike Protein Native RBD (UniProt P0DTC2 333-526)
# Test: BLI
binder,measurement,value
B1,Kd,1.8 nM
